The results in this text go back to publication PMC8022203 (ACS infectious diseases, 2021).

The subject of series [1] is CC(=O)Nc1ccc(/C=N/NC(N)=S)cc1. Briefly: purified protein. The note with it: pH 8.0; 37.0 °C.
Series [2] relates to CCN(CC)c1ccc2cc(-c3ccc(/C=N/NC(N)=S)s3)c(=O)oc2c1. Briefly: purified protein. The note with it: pH 8.0; 37.0 °C.

As a reminder, the Km is the substrate concentration at which the rate is half of its maximum.

In the case of EthA (Mycobacterium tuberculosis H37Rv), the Km in series [1] was found to be 0.153 ± 0.011 mM; in series [2], 0.016 ± 0.002 mM.
